Data on 14 molecules can be found in patent US20070280945A1 (Regeneron, published 2007).

For orientation: IC50 means the point on the concentration scale where inhibition reaches its midpoint. Lower therefore signals inhibition by little substance. Usually Kd stands for the equilibrium constant for the complex coming apart. A word on the koff: it is the rate constant with which the complex falls apart. The term kon denotes a measure of how fast the partners come together.

For assay [1], the target named is T1, hIL-6R recombinant protein (plate-coated, Example 5) (human, UniProt P08887 20-358, limits assumed).
T1 construct: also called antigen
T1 sequence: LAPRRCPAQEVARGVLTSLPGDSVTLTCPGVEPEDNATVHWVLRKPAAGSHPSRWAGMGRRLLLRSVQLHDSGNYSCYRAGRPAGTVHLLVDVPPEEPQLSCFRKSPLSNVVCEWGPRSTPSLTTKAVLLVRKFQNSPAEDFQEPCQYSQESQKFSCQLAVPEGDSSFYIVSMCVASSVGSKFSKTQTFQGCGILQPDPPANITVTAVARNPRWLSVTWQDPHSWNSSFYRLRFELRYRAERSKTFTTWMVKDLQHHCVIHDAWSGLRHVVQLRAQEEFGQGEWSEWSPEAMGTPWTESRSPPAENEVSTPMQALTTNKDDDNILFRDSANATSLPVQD
The assay is described as follows: competition ELISA on hIL-6R-coated plate presaturated with competitor control antibody; test antibody 50 ng/ml. In general terms: An ELISA detects its analyte on a solid surface through an enzyme-linked reagent.

The target in assay [2] is T2, hIL-6R-hFc (human, UniProt P08887 20-358).
T2 construct: also called dimeric hIL-6R; Dimer; not shown: human Fc (hFc)
T2 sequence: T1 sequence
The assay is described as follows: blocking ELISA: 100 pM hIL-6R-hFc premixed with varied antibody, free hIL-6R-hFc captured on hIL-6-coated plate.

For assay [3], the target named is T2, hIL-6R-hFc. The assay is described as follows: competition ELISA: antibody premixed with serial dilutions of hIL-6R-hFc, free antibody detected on hIL-6R-hFc-coated plate.
Assay [4] has as its target T3, recombinant hIL-6R protein, monomeric form (human, UniProt P08887 20-358).
T3 construct: also called monomeric hIL-6R; Human IL6R
T3 sequence: T1 sequence
The assay is described as follows: SPR (BIAcore), antibody captured on goat anti-human Fc, monomeric hIL-6R 1.56-12.5 nM.

Assay [5] has as its target T4, hIL-6R on hIL-6-responsive human cells (XG-1 myeloma line, HepG2 hepatoma line) (human, UniProt P08887 20-468).
T4 sequence (looked up): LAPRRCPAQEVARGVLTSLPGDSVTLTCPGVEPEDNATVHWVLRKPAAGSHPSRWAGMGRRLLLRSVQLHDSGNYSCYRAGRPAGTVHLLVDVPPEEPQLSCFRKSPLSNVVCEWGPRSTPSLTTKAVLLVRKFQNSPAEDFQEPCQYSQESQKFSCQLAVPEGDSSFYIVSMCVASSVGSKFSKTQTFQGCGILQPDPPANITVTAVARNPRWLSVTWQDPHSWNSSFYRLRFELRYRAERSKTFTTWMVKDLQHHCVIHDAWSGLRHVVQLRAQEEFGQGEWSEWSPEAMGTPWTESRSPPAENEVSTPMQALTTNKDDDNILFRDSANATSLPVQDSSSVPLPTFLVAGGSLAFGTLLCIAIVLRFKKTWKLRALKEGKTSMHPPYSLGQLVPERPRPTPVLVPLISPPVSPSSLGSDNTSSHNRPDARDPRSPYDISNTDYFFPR
The assay is described as follows: cell-based or functional assay.

The target of assay [6] is T3, recombinant hIL-6R protein, monomeric …. The assay is described as follows: SPR (BIAcore), antibody captured on anti-mouse IgG surface, monomeric hIL-6R. On the technique in general: In SPR one partner is held on a chip, and binding of the other changes the refractive index at the surface.
Assay [7] shares this target. The assay is described as follows: Kinexa solution-phase competition immunoassay, monomeric hIL-6R.
The target in assay [8] is T2, hIL-6R-hFc. The assay is described as follows: SPR (BIAcore): hIL-6R-hFc captured, antibody injected, then 50 nM hIL-6; percent reduction in hIL-6 binding.
The target in assay [9] is T4, hIL-6R on hIL-6-responsive human cells …. The assay is described as follows: cell-based or functional assay. This is another data set of the same source.
Assay [10] concerns the target T2, hIL-6R-hFc. The assay is described as follows: SPR (BIAcore), antibody captured on anti-mouse IgG surface, dimeric hIL-6R.
The target in assay [11] is T1, hIL-6R recombinant protein …. The assay is described as follows: SPR (BIAcore) competition on hIL-6R; competitor: control antibody.

Residue numbers refer to the chain shown, from its start.

B1: VV6C10-3 (antibody, V domains shown)
VH: QVQLVQSGAEVKKPGASVKVSCKASGFNFFHYGITWVRQAPGQGLEWMGWISTYNGDTIYAQKVQGRVTMTTDTATSTAYMELRSLRSDDTAVYYCARSEQQVDYYFYGMDVWGQGTTVTVSS
VL: EIVLTQSPATLSLSPGERATLSCRASQSVSSYLAWYQQKPGQAPRLLIYDASNRATGIPARFSGSGSGTDFTLTISSLEPEDFAFYYCQQRNNRPPFTFGPGTKVDVR
notes: Human variable regions with mouse constant region
With B1, in [1], the “% reduction of binding by control antibody” value (from here on “% reduction of binding”) is 1%. Moreover, the IC50 was 0.06 nM in the assay with hIL-6R-hFc [2] and 0.009 nM with hIL-6R-hFc [3].

B2: VQ8A9-6 hIgG1 (antibody, V domains shown)
VH: EVQLVESGGNLVQPGRSLRLSCAASGFIFDDYAMHWVRQAPGKGLEWVSGISWNSGSIGYADSVKGRFTISRDNAKNSLYLQMNSLRAEDTALYYCAKDGGSSWLPFVYYYGMDVWGQGTTVTVSS
VL: EIVMTQSPATLSVSPGERATLSCRASQSISSNFAWYQQKPGQAPRLLIYGASTRATGIPARFSGSGSGTDFTLTISSLQSEDFAVYYCQQYSSWPPYTFGQGTKLEIK
notes: Human IgG1 constant region
As for B2, in assay [4], the dissociation constant (Kd) came to 0.238 nM, the koff stood at 0.00026 s⁻¹ and the kon stood at 1.09e+06 M⁻¹ s⁻¹. Also, the “HepG2/STAT3 luciferase assay IC50” value in [5] was 0.13 nM.

B3: VQ8A9-6 hIgG4 (antibody, V domains shown)
VH: B2 VH
VL: B2 VL
notes: Human IgG4 constant region
Take B3: in [4], the dissociation constant Kd stood at 0.201 nM, the off-rate constant (koff) stood at 0.000235 s⁻¹ and the kon was 1.17e+06 M⁻¹ s⁻¹. Besides, the “HepG2/STAT3 luciferase assay IC50” value in assay [5] amounted to 0.185 nM.

B4: VV3D8-4 (antibody, V domains shown)
VH: EVQLVESGGGLVQPGRSLRLSCAASGFTFDDYALHWVRQAPGKGLEWVSGISWNSGRIGYADSVKGRFTISRDNAKNSLFLQMNSLRAEDTALYYCAKGRDAFDIWGQGTLVTVSS
VL: DIQMTQSPSSVSASVGDRVTITCRASQGISSWLAWYQQKPGKAPKLLIYAASSLQSGVPSRFSGSGSGTDFTLTISSLQPEDFATYYCQQANSFPYTFGQGTKLEIK
notes: as for B1
As for B4, the values for the dissociation constant (Kd) (in assay [6]; in assay [7]; with hIL-6R-hFc [10]) were 2.41 nM, 1.91 nM and 0.172 nM, respectively. Further, the entries for the “% reduction of binding” value in [1] and in assay [11] were 84% and 97%, respectively. In addition, in the assay with hIL-6R-hFc [8], the “hIL6/hIL6R Binding Inhibition (%)” value came out at 93%. For the same molecule, the IC50 is 0.61 nM with hIL-6R-hFc [2] and 0.013 nM with hIL-6R-hFc [3]. For the same molecule, in assay [9], the “XG-1 cell proliferation Inhibition IC50” value is over 100 nM.

B5: VV6C10-1 (antibody, V domains shown)
VH: B4 VH with I51V, S55G, A88V
VL: B1 VL
notes: as for B1
With B5, the results for the Kd (in assay [6]; in assay [7]; in the assay with hIL-6R-hFc [10]) were 0.267 nM, 2.05 nM and 0.032 nM, respectively. Moreover, the “% reduction of binding” value in assay [1] turned out to be 80%; in assay [11], 90%. Moreover, in the assay with hIL-6R-hFc [8], the “hIL6/hIL6R Binding Inhibition (%)” value is 61%. Moreover, the half-maximal inhibitory concentration (IC50) with hIL-6R-hFc [2] came to 4.6 nM; in the assay with hIL-6R-hFc [3], 0.01 nM. Also, the “XG-1 cell proliferation Inhibition IC50” value in assay [9] is over 6.9 nM.

B6: VV6A9-5 hIgG4 (antibody, V domains shown)
VH: B4 VH with I51V, S55G, A88V
VL: B4 VL with Q90H, N92Y
notes: Human IgG4 constant region
In the case of B6, in assay [4], the Kd is 0.135 nM, the koff was 7.64e-05 s⁻¹ and the kon stood at 567000 M⁻¹ s⁻¹. In addition, the “HepG2/STAT3 luciferase assay IC50” value in assay [5] turned out to be 0.343 nM.

B7: VQ8F11-21 hIgG4 (antibody, V domains shown)
VH: B4 VH with G26R, L34M, K76E, S85G, A102S, L111M
VL: B4 VL with A50G, Q55E, T85S
notes: Human IgG4 (wild-type) constant region
On to B7, for which, in [4], the equilibrium dissociation constant (Kd) is 0.073 nM, the koff was determined as 5.22e-05 s⁻¹ and the kon came out at 717000 M⁻¹ s⁻¹. In assay [5], the “HepG2/STAT3 luciferase assay IC50” value worked out at 0.228 nM.

B8: VV6A9-5 hIgG1 (antibody, V domains shown)
VH: B4 VH with I51V, S55G, A88V
VL: B4 VL with Q90H, N92Y
notes: Human IgG1 constant region
Take B8: in assay [4], the Kd came out at 0.125 nM, the koff worked out at 8.87e-05 s⁻¹ and the kon turned out to be 712000 M⁻¹ s⁻¹. Further, the “HepG2/STAT3 luciferase assay IC50” value in [5] stood at 0.204 nM.

B9: VQ8F11-21 hIgG1 (antibody, V domains shown)
VH: B4 VH with G26R, L34M, K76E, S85G, A102S, L111M
VL: B4 VL with A50G, Q55E, T85S
For the molecule B9, in [4], the equilibrium dissociation constant (Kd) amounted to 0.073 nM, the koff was 4.54e-05 s⁻¹ and the association rate constant (kon) is 622000 M⁻¹ s⁻¹. In [5], the “HepG2/STAT3 luciferase assay IC50” value is 0.15 nM.

B10: VV6F12-11 (antibody, V domains shown)
VH: QVQLVQSGAEVKEPGASVKISCKASGYTFTSYDIIWVRQATGQGLEWMGWMNPNSGDRGYTQNLQGRVTLTRDTSISTVYMELSSLRSEDTAVYYCARDYSNHYYGLDVWGQGTTVTVSS
VL: DIQLTQSPSFLSASVGDRVTITCWASQDISNYLAWYQQKPGKAPKLLIFVASTLQSGVPSRFSGSGSGTEFTLTISSLQPEDFATYYCQQFNSYPLTFGGGTKVEIR
notes: as for B1
For B10, the “% reduction of binding” value in assay [1] was 3%. The values for the half-maximal inhibitory concentration (IC50) with hIL-6R-hFc [2] and with hIL-6R-hFc [3] were 2.2 nM and 0.033 nM, respectively.

B11: VQ1G4-21 hIgG1 (antibody, V domains shown)
VH: B10 VH with I20V, D57N, R58T, D73N, S77T, R87S, N102S
VL: B10 VL with A13T, V15I, R107K
notes: Human IgG1 constant region
With B11, in assay [4], the Kd was 0.237 nM, the off-rate constant (koff) turned out to be 7.92e-05 s⁻¹ and the kon was determined as 334000 M⁻¹ s⁻¹. For the same molecule, the “HepG2/STAT3 luciferase assay IC50” value in assay [5] turned out to be 0.767 nM.

B12: VQ1G4-21 hIgG4 (antibody, V domains shown)
VH: B10 VH with I20V, D57N, R58T, D73N, S77T, R87S, N102S
VL: B10 VL with A13T, V15I, R107K
notes: Human IgG4 constant region
For the molecule B12, in [4], the dissociation constant Kd was 0.336 nM, the koff is 9.18e-05 s⁻¹ and the kon is 273000 M⁻¹ s⁻¹. Besides, in assay [5], the “HepG2/STAT3 luciferase assay IC50” value was determined as 0.528 nM.

B13: VV7G4-10 (antibody, V domains shown)
VH: QVQLVQSGAEVKKPGASVKVSCKASGYTFTSYGISWVRQAPGQGLEWMGWISAYNDDTNYAQKFQGRVTMTTDTSTSTAYMELRSLRSDDTAVYYCAREAQLVLYYYYGMDVWGQGTTVTVSS
VL: EIVLTQSPATLSLSPGERATLSCRASQSVSSFLAWNQQKPGQAPRLLIYDASNRATGIPARFSGSGSGTDFTLTISSLEPEDFAVYYCQQRSNWPYIFGQGTKLEIK
notes: as for B1
B13: the “% reduction of binding” value in assay [1] worked out at 26%. Further, the IC50 with hIL-6R-hFc [2] was 13 nM; with hIL-6R-hFc [3], 1.98 nM.

B14: VV9A6-11 (antibody, V domains shown)
VH: B13 VH
VL: B13 VL
notes: as for B1
As to B14, the “% reduction of binding” value in assay [1] is 18%. For the same molecule, the IC50 with hIL-6R-hFc [2] was 0.5 nM; in the assay with hIL-6R-hFc [3], 0.347 nM.
